Laboratory results from article PMC10319324, “Ηigh-resolution structure of mammalian PI31–20S proteasome complex reveals mechanism of proteasome inhibition” (The Journal of Biological Chemistry, 2023).
Residue numbers refer to the chain shown, from its start. In names and notes the source's numbering stands. Blank lines part the entries; values can stand above or below the binder they belong to.

Tests used:
bovine 20S proteasome = bovine 20S proteasome (bovine, UniProt Q2YDE4 1-246; Q3T0Y5 1-234; Q3ZCK9 1-261; Q3ZBG0 1-248; Q5E987 1-241; Q3T0X5 …); assay: cell-based or functional assay
[1] = molecular target: T1, recombinant wildtype human PI31 (Proteasome Inhibitor of 31,000 Da) (human, UniProt Q92530 1-271); assay: cryo-EM structure; purified hPI31 and bovine 20S mixed at a molar ratio of 5:1, 37 °C for 1 h in 20 mM Tris, pH 7.5, 5 mM MgCl2, 100 mM KCl, 1 mM DTT; latent closed-gate 20S; C1 map at 2.54 Å; conditions: both partners purified
T1 construct: PI31, product of the PSMF1 gene, human; The methods name a pET28a(+) vector with N-terminally tagged wildtype hPI31 and 'His-PI31 (wildtype)' for mass photometry; Exists in a monomer-dimer equilibrium; also called hPI31; hPI31^WT; source: E. coli, purified; not shown: His tag, N-terminal, kept
T1 sequence (looked up): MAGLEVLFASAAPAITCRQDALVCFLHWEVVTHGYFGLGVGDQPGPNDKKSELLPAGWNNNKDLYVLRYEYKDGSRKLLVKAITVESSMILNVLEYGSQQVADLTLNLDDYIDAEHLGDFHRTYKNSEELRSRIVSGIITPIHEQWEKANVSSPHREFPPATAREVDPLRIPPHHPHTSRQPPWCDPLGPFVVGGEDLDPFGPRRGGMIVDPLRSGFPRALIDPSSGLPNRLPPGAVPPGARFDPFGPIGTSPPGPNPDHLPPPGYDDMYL

[2] = molecular target: the molecule itself; assay: mass photometry; monomer to dimer; His-PI31 diluted to 40 nM total monomer in PBS, recorded immediately after mixing (TwoMP, Refeyn); peaks at 36 to 37 and 56 to 59 kDa

B2: β5 subunit of the bovine 20S proteasome (natural protein, UniProt Q32KL2 60-263, looked up)
chain: TTTLAFKFRHGVIVAADSRATAGAYIASQTVKKVIEINPYLLGTMAGGAADCSFWERLLARQCRIYELRNKERISVAAASKLLANMVYQYKGMGLSMGTMICGWDKRGPGLYYVDSEGNRISGATFSVGSGSVYAYGVMDRGYSYDLEVEEAYDLARRAIYQATYRDAYSGGSVSLYHVREDGWIRVSSDNVADLHDKYSGSTH
notes: Stood in the assay as a subunit of the assembled 20S proteasome; also called β5 active site; β5 catalytic site; source: purified from bovine red blood cells, as part of the 20S proteasome
binding result [1]: binds

B3: human PI31 V6R dimerization mutant (natural protein, UniProt Q92530 1-271, looked up)
chain: T1 sequence (looked up) with V6R
notes: PI31, product of the PSMF1 gene, human; point mutation V6R in the FP domain, made on the pET28a(+)-HisPI31^wt template; also called hPI31^V6R; source: E. coli BL21 Star (DE3), purified (Ni-NTA); not shown: His tag, N-terminal, kept
[monomer] at 50% inhibitory activity against SDS-activated 20S (50 nM), PI31 up to 10-fold molar excess (bovine 20S proteasome): 108 nM
[monomer]/[M]T ratio [2]: 0.54

The next lines start with the values.

[monomer] at 50% inhibitory activity against SDS-activated 20S (50 nM), PI31 up to 10-fold molar excess (bovine 20S proteasome): 200 nM
inhibition of the catalytic activity of each subunit type (β1, β2, β5 peptide substrates), PI31 at 10- to 20-fold molar excess (bovine 20S proteasome): > 95%
B1: human PI31 C-terminal domain, residues 152-271 (domain or fragment, UniProt Q92530 152-271, looked up)
chain: SSPHREFPPATAREVDPLRIPPHHPHTSRQPPWCDPLGPFVVGGEDLDPFGPRRGGMIVDPLRSGFPRALIDPSSGLPNRLPPGAVPPGARFDPFGPIGTSPPGPNPDHLPPPGYDDMYL

binding result [1]: binds
B4: β2 subunit of the bovine 20S proteasome (natural protein, UniProt Q2TBP0 44-277, looked up)
chain: TTIAGVVYKDGIVLGADTRATEGMVVADKNCSKIHFISPNIYCCGAGTAADTDMTTQLISSNLELHSLSTGRLPRVVTANRMLKQMLFRYQGYIGAALVLGGVDVTGPHLYSIYPHGSTDKLPYVTMGSGSLAAMAVFEDKFRPDMEEEEAKKLVSEAIAAGIFNDLGSGSNIDLCVISKSKLDFLRPYSVPNKKGTRFGRYRCEKGTNAVLTEKVTTLEIEVLEETVQTMDTS
notes: Stood in the assay as a subunit of the assembled 20S proteasome; also called β2 active site; β2 catalytic site; source: purified from bovine red blood cells, as part of the 20S proteasome
